Measured values taken from paper PMC11472046 (2024).
Numbering of substitutions follows the chain as printed. In names and notes the source's numbering stands.

B1: Chp2-WT (recombinant) (natural protein)
chain: MVKSADLDLMNSIISESDENFSPPPFTVEEAENSINNKSSTASLESPQNGSWHPSLYGLSVPEKTHIQNSLDLYSHGNSGSQKTHNVSFSCEIRKVKSSKLSPISNMEDSEDKKEEDESSSYKNEFKSSSSASVSSNFEKTSGSDDHNSQSPVPLNEGFEYIASSGSEDKNSDEEFAVEMILDSRMKKDGSGFQYYLKWEGYDDPSDNTWNDEEDCAGCLELIDAYWESRGGKPDLSSLIRLTRSRARSSNEASYVEKDESSNSDDSISYKRRRSRNAANRITDYVDSDLSESSMKEKQSKIEKYMKSDKSSKNFKPPFQKKSWEDLVDCVKTVQQLDNGKLIAKIKWKNGYVSTHDNIIIHQKCPLKIIEYYEAHIKFT
B2: Chp2 W199A (recombinant) (natural protein)
chain: B1 chain with W199A

How the values were obtained:
[1] = molecular target: H3K9me3 mononucleosome (trimethyl-lysine at 9 (H3K9me3)); test: apparent K1/2 by EMSA
[2] = molecular target: H3K9me0 mononucleosome; test: apparent K1/2 by EMSA

Binder	Kd [1]	Kd [2]
B1	66 nM	134 nM
B2	145 nM	135 nM
